B1: AGGGCGGCGGGCGGGGAAGAGGGCACAGACGGGCGAGGGCCGGGGACCGCGAGGGCAAGGGCACCCGGG (nucleic acid, listed as Homo sapiens)
chain: AGGGCGGCGGGCGGGGAAGAGGGCACAGACGGGCGAGGGCCGGGGACCGCGAGGGCAAGGGCACCCGGG
modifications: DNA, backbone and methylation of C not given here
B2: CGGAGGGCGCGCGGGTCGGGGCGGCGGCGGCGGCGGCGGTGGCGGCGGCGGCGGGGGCGGCGGG (nucleic acid, listed as Homo sapiens)
chain: CGGAGGGCGCGCGGGTCGGGGCGGCGGCGGCGGCGGCGGTGGCGGCGGCGGCGGGGGCGGCGGG
modifications: listed as DNA, chemistry not given here

Assays:
nucleolin [1] = target: T1, nucleolin (Homo sapiens, UniProt P19338); experiment: Filter-binding assay of 32P-labeled quadruplexes and Nucleolin; settings: for Kd: 0.2 nM 32P-labeled quadruplex, read-out: Kd, apparent dissociation constant of nucleolin protein and the nucleic acid ligand
T1 construct: without the N-terminal acidic stretches domain
Method: The assay also was conducted in a filter-binding format. […] The protein-quadruplex mixtures were incubated for 30 min at ambient temperature and filtered through mixed cellulose ester membrane filters (Millipore) with gentle suction. The filters were washed twice with […] of binding buffer, dried and OptiPhase ‘SuperMix’ scintillation cocktail (Perkin Elmer) was added to the wells. Radioactivity was assayed with MicroBeta scintillation counter (Perkin Elmer). Binding curves were constructed and apparent Kd's and Bmax's for the complexes were calculated using the GraphPad Prizm software program (GraphPad Software). In the following table, the nucleic acid ligand is designated in the first column using the nomenclature described herein; the second column provides the nucleotide sequence of the nucleic acid ligand; the third column is the conformation of the ligand as determined by circular dichroism (M is mixed, P is parallel, A is antiparallel, C is complex, SS is single-stranded and ND is not determined); the fourth column is the dissociation constant determined by the filter binding assay of nucleolin protein and the nucleic acid ligand; the fifth column is a Bmax constant determined by the filter binding assay, which is the percent of active nucleic acid ligand in each assay; and the sixth column presents the concentration of Compound A-1 required to dissociate half of the complexed nucleic acid ligand and nucleolin protein, as determined by the EMSA assay described above.

nucleolin [2] = target: T1, nucleolin; experiment: EMSA, relative affinity of nucleic acid ligands for nucleolin; format: binding; design: key: +: weakest nucleolin affinity; ++++: strongest nucleolin affinity
Method: The following assays assessed effects of compounds on interactions between nucleolin and nucleic acid ligands capable of forming quadruplex (QP) and hairpin (HP) secondary structures. Nucleic acid ligands tested were a cMyc QP DNA having nucleotide sequence 5′-[…]-3′ (SEQ ID NO: 176) and a HP pre-rRNA region to which nucleolin binds, having the sequence 5′-[…]-3′ (SEQ ID NO: 177). In the assays, recombinant nucleolin (˜250 nM), which was fused to maltose binding protein and had the sequence under accession number NM_005381 without the N-terminal acidic stretches domain, was incubated with each of the two ^32P-labeled nucleic acid ligands (10 or 250 nM). Nucleolin and the nucleic acid ligand were incubated in the presence or absence of a test compound of Formula A-1, B-1, C-6 or C-7 in an incubation buffer (12.5 mM Tris, pH 7.6, 60 mM KCl, 1 mM MgCl2, 0.1 mM EDTA, 1 mM DTT, 5% glycerol, 0.1 mg/ml BSA) for 30 minutes at room temperature. Structures for A-1 and B-1 are shown above and structures for C-6 and C-7 are shown hereafter: [drawing 17] The resulting complexes were separated on a 6% DNA retardation gel using 0.5× TBE with 20 mM KCl as a running buffer (i.e., electrophoresis mobility shift assay (EMSA)).
The assay also was conducted using nucleic acid ligands derived from human ribosomal DNA. Sequences of these nucleic acids are shown in the preceding example. […]

T1 sequence (P19338 284-710 limits assumed): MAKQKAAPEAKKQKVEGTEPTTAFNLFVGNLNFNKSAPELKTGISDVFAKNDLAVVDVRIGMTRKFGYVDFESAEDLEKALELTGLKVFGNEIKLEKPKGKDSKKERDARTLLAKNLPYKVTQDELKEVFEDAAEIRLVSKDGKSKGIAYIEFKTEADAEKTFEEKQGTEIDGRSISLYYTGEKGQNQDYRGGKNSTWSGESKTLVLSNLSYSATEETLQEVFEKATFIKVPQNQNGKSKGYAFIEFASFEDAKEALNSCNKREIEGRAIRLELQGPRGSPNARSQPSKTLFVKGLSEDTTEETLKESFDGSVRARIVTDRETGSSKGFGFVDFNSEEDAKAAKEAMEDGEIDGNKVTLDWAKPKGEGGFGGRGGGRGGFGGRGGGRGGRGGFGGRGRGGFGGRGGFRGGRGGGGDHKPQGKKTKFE

Molecule	Bmax, percent of active nucleic acid ligand (nucleolin [1]) [%]	Kd (nucleolin [1]) [pM]	Affinity for Nucleolin (relative) (nucleolin [2])
B1	55	700	–
B2	100	300	++++
